From US20150056222A1 (Regeneron, published 2015) come the findings set out here.

Positions count from the first letter of the chain named. In names and notes the source's numbering stands.

The labels stand for the following.
T1: hPRLR.mmh (soluble monomeric human PRLR) (human)
T1 construct: soluble monomeric construct
T1 chain: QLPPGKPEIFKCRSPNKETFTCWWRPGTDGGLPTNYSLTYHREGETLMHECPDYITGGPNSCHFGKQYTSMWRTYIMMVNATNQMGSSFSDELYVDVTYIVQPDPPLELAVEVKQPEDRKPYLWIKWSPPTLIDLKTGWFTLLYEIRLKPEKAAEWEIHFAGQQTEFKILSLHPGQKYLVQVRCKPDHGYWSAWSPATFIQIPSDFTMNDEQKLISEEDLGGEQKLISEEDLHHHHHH

T2: hPRLR.mFc (soluble dimeric human PRLR) (human)
T2 construct: dimeric construct
T2 chain: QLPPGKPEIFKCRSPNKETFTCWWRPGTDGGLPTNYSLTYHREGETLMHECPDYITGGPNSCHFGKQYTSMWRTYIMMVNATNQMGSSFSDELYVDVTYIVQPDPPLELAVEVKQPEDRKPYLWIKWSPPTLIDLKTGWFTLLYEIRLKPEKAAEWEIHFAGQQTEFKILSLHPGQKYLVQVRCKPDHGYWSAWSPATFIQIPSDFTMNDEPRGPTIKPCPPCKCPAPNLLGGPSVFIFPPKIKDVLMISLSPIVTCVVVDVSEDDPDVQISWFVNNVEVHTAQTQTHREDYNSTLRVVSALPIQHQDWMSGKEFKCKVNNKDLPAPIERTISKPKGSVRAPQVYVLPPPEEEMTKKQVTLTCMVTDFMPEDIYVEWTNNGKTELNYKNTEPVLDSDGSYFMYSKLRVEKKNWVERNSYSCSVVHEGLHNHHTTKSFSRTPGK

T3: mfPRLR.mmh (soluble monomeric macaca fascicularis PRLR) (macaca fascicularis)
T3 construct: soluble monomeric construct; also called macaca fascicularis (mf) PRLR.mmh
T3 chain: T1 chain with I76V, A110T, I125M, I158T, T207I

T4: human prolactin receptor (PRLR) on cells (human, UniProt P16471 25-622)
T4 sequence: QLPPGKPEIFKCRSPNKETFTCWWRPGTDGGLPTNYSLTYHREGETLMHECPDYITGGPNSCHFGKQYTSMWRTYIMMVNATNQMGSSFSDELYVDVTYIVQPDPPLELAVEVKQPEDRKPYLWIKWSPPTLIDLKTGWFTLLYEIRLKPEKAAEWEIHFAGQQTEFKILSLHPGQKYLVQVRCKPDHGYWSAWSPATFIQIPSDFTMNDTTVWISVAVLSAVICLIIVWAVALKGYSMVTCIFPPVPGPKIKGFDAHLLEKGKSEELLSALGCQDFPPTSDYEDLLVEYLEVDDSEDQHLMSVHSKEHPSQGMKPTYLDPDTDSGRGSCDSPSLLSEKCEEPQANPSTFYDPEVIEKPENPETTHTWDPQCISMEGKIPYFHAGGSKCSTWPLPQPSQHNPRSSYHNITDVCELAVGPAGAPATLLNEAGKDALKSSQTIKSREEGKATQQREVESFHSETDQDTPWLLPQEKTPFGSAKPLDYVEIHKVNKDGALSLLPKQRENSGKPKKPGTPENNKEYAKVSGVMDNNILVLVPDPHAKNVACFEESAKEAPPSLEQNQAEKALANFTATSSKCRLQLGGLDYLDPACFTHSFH

T5: mouse PRLR on HEK293 cells (mouse, UniProt Q08501 20-608)
T5 construct: whole, on cells; also called mPRLR; HEK293/mPRLR
T5 sequence (looked up): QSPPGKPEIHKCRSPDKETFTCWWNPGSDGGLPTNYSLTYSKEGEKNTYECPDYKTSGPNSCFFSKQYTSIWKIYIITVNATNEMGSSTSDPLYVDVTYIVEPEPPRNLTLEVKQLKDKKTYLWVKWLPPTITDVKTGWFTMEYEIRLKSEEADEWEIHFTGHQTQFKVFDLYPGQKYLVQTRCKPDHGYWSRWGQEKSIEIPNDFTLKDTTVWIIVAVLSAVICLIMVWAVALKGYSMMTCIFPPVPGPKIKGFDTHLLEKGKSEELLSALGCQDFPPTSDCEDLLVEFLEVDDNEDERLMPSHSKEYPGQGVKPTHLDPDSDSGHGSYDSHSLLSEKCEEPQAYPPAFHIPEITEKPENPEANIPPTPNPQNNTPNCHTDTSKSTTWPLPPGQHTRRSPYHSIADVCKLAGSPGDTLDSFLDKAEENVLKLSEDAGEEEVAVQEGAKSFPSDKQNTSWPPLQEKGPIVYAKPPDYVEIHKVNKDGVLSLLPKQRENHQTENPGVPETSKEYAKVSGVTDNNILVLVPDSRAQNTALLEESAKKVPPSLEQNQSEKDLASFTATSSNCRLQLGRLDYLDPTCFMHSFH

T6: monkey (macaca fascicularis) PRLR on HEK293 cells (macaca fascicularis, UniProt A0A2K5WXK1 25-619)
T6 construct: also called mfPRLR; HEK293/mfPRLR
T6 sequence: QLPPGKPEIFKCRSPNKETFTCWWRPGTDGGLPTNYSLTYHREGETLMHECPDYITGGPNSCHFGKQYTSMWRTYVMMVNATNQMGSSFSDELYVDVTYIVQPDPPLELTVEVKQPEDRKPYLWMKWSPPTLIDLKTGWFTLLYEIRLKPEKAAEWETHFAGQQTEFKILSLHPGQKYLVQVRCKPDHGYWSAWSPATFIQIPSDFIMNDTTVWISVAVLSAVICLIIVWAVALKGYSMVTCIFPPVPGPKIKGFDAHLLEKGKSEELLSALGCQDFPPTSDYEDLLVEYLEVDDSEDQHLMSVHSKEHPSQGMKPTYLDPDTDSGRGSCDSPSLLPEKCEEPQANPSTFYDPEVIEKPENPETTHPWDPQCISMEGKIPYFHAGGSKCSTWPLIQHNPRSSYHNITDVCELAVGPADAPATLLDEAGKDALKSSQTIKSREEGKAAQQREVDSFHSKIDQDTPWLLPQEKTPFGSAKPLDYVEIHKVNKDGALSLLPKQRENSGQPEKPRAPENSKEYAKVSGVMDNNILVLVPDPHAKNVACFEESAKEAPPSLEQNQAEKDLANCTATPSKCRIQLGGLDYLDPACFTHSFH

B1: H1H6967N (antibody, human IgG1, V domains shown)
VH: EVQLVESGGDLVHPGRSLRLSCAASGFPFDEYAMHWVRQVPGKGLEWVSGISWSNNNIGYADSVKGRFTISRDNAKNSLYLQMNSLRPEDTAFYYCAKSGIFDSWGQGTLVTVSS
VL: EIVMTQSPATLSVSPGERATLSCRASQSVSRDLAWYQQKPGQAPRLLIHGASTRATGIPARFSGSGSGAEFTLIISSLQSEDFAVYYCQQYNNWPLTFGGGTKVEIK
notes: also called H2M6967N
B2: H1H6792P (antibody, human IgG1, V domains shown)
VH: EVQLVESGGGLVQPGRSLRLSCAASGFTLDDHAVHWVRQAPGKGLEWVSGISWNSVYIDYADSVKGRFTIFRDNAKNSLYLQMNSLRAEDTAFYYCARDIEGARDYWGQGTLVTVSS
VL: DIQMTQSPSSLSASVGDRVTITCRASQGIRNDLGWYQQKPGKAPKRLIYAASSLQSGVPSRFSGSGYGTEFTLTISSLQPEDFAPYYCLQHNSYPLTFGGGTKVEIK
notes: human IgG1 Fc (H1H)
B3: H1H6783P (antibody, human IgG1, V domains shown)
VH: QVQLQQSGPGLVKPSQTLSLTCAISGDSVSSNTFAWNWIRQSPSRGLEWLGRTYYRSKWYIDYAESVKSRITITPDTSKNQFSLQLNSVTPEDTALYYCAGGYTYAPRGAFDIWGQGTMVTVSS
VL: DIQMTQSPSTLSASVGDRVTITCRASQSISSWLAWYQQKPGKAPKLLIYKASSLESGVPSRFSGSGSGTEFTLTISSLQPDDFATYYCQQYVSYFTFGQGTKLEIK
notes: human IgG1 Fc (H1H)
B4: H1H6781P (antibody, human IgG1, V domains shown)
VH: EVQLVESGGDLVQPGESLRLSCTASGFTFNSYEMNWVRQAPGKGLEWVSYISSSGGTKYYVDSVKGRFTISRDNAKKSLYLQMNSLRADDTALYYCARLNGVDVFDIWGQGTMVTVSS
VL: DIQMTQSPSSLSASVGDRVTITCRASQDIFNYLAWFQQKPGKVPELLISAASTLQSGVPSRFSGSGSGTYFTLTISSLQPEDIATYYCQRYNSAPLTFGGGTKVEIK
notes: human IgG1 Fc (H1H)
B5: H1H6774P (antibody, human IgG1, V domains shown)
VH: EVQLVESGGGLAQPGGSLRLSCVASGFTFSTYWMSWVRQAPGKGLDWVGNIKQDGSEQNYVDSVRGRFTISRDNAKNSLFLQMNSLRAEDTGVYYCATLLTKGDYWGQGTLVTVSS
VL: DIQMTQSPSSLSASVGDSVTITCRASQDISNYLDWFQQKPGKAPKSLIYAASILQGGVPSRFSGSGYGTDFTLTISSLQPEDFATYYCRQYKTYPFTFGPGTKVDIK
notes: human IgG1 Fc (H1H)
B6: H1H6958N2 (antibody, human IgG1, V domains shown)
VH: QVQLVESGGGVVQPGRSLRLSCGASGFTFRNYGMQWVRQGPGKGLEWVTLISFDGNDKYYADSVKGRFTISRDNSKNTLFLQMNSLRTEDTAVYYCARGGDFDYWGQGTLVTVSS
VL: DIQMTQSPSSLSASVGDRVTITCRASQDIRKDLGWYQQKPGKAPKRLIYAASSLHSGVPSRFSGSGSGTEFTLTISSLQPEDFATYYCLQHNSYPMYTFGQGTKLEIK
notes: also called H2M6958N2

One experiment addresses T1, hPRLR.mmh (soluble monomeric human PRLR). Briefly: SPR, 37C, mAb capture. Here is the method:
(§1) Measurements were conducted on a T200 Biacore instrument. Kinetic association (kₐ) and dissociation (kd) rate constants were determined by processing and fitting the data to a 1:1 binding model using Scrubber 2.0 curve fitting software. Binding dissociation equilibrium constants (KD) and dissociative half-lives (t_{1/2}) were calculated from the kinetic rate constants as: KD (M)=kd/kₐ; and […].
For orientation: In SPR one partner is held on a chip, and binding of the other changes the refractive index at the surface.
Molecule B1 returned a T½ of 12.4 min.
Still for that read-out and setting: then B2, with 5 min; and B3, with 7 min.
Still for that read-out and setting: then B4, with 37 min; and B5, with 4 min; and B6, with 8.8 min.

The target in another experiment is T2, hPRLR.mFc (soluble dimeric human PRLR). In words: SPR, 37C, mAb capture. On the procedure:
as §1
In turn, B1 returned a T½ of 119 min.
Molecule B2 had a T½ of 66 min.
On to B3, for which the T½ came out at 83 min.
Molecule B4 yielded a T½ of 117 min.
With B5, the T½ is 60 min.
Same read-out and setting: then B6, with 83.3 min.

A further experiment has as its target T3, mfPRLR.mmh (soluble monomeric macaca …). In words: SPR, 37C, mAb capture. Here is the method:
as §1
On to B1, for which the T½ was 7.1 min.
Same read-out and setting: with B2 the figure was 4 min.
B3 showed a T½ of 9 min.
Same read-out and setting: with B4 the figure was 43 min.
The molecule B5 gave a T½ of 3 min.
On the same count and under the same terms, with B6 the figure was 8.6 min.

A further experiment concerns the target T4, human prolactin receptor (PRLR) on cells. Briefly: cell-based or functional assay.
With B1, the “% Internalization relative to Control I (alexa488 intensity in intracellular vesicles at 37 C, T47D cells)” value turned out to be 169%.
Still for that read-out and setting: then B2, with 156%.
On the same count and under the same terms, then B3, with 161%; and B4, with 165%; and B5, with 162%.
On the same count and under the same terms, with B6 the figure was 169%.

For the next experiment the target is unchanged. In words: FACS, HEK293/hPRLR cells. Also: test concentration or dose not given here.
With B1, the “FACS Cell Binding (Fold Above Background)” value came to 38 fold above background.
The same measure, in the same setting: then B2, with 37 fold above background; and B3, with 37 fold above background.
Still for that read-out and setting: then B4, with 37 fold above background; and B5, with 1 fold above background.
With B6, the “FACS Cell Binding (Fold Above Background)” value was found to be 35 fold above background.

The target of the next experiment is T5, mouse PRLR on HEK293 cells. Briefly: FACS, HEK293/mPRLR cells. Also: test concentration or dose not given here. Background: In flow cytometry, cells or beads pass a laser one at a time.
As to B1, the “FACS Cell Binding (Fold Above Background)” value worked out at 2 fold above background.
Consider B2, for which the “FACS Cell Binding (Fold Above Background)” value turned out to be 3 fold above background.
Same read-out and setting: with B3 the figure was 1 fold above background; with B4, 1 fold above background.
Still for that read-out and setting: then B5, with 1 fold above background.
On the same count and under the same terms, with B6 the figure was 1 fold above background.

The next experiment deals with T6, monkey (macaca fascicularis) PRLR on …. Briefly: FACS, HEK293/mfPRLR cells. Also: test concentration or dose not given here.
Regarding B1, the “FACS Cell Binding (Fold Above Background)” value came out at 28 fold above background.
On the same count and under the same terms, with B2 the figure was 28 fold above background; with B3, 27 fold above background; with B4, 26 fold above background.
Still for that read-out and setting: with B5 the figure was 29 fold above background; with B6, 30 fold above background.

The target in the next experiment is T4, human prolactin receptor (PRLR) on cells. In words: FACS, T47D cells (native PRLR). Also: test concentration or dose not given here.
For the molecule B1, the “FACS Cell Binding (Fold Above Background)” value turned out to be 41 fold above background.
As for B2, the “FACS Cell Binding (Fold Above Background)” value worked out at 37 fold above background.
For the molecule B3, the “FACS Cell Binding (Fold Above Background)” value was determined as 38 fold above background.
Still for that read-out and setting: then B4, with 40 fold above background; and B5, with 39 fold above background; and B6, with 37 fold above background.
